This test deals with T1, Recombinant GST-IRTKS (mouse, UniProt Q9DBJ3 1-514).
T1 construct: IRTKS, cloned from a murine bone marrow library, subcloned into pGEX-6p-1; also called recombinant IRTKS; source: E. coli (pGEX-6p-1), recombinant
T1 sequence (looked up): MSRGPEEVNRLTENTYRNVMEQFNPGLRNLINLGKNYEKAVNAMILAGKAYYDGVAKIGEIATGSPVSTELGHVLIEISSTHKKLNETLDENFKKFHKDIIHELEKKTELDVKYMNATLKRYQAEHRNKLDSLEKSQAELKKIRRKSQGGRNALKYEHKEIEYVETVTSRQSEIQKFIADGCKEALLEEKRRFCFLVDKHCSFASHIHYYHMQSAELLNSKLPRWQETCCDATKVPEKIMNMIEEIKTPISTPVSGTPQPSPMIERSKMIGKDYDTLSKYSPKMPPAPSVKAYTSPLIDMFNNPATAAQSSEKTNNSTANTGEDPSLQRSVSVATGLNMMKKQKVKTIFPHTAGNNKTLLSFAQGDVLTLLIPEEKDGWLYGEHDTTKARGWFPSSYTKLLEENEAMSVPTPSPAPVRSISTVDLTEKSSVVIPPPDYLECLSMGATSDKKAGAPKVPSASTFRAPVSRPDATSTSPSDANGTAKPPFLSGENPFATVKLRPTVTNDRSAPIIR
Put plainly: pull-down; GST pull-down: recombinant GST-tagged IRTKS or its truncations incubated with the recombinant partner. The conditions noted are these: both partners purified.

This is an account of results in PMC4569712, “IRTKS negatively regulates antiviral immunity through PCBP2 sumoylation-mediated MAVS degradation” (Nature Communications, 2015).

B1: Recombinant PCBP2 (natural protein, mouse, UniProt Q61990 1-362, looked up)
chain: MDTGVIEGGLNVTLTIRLLMHGKEVGSIIGKKGESVKKMREESGARINISEGNCPERIITLAGPTNAIFKAFAMIIDKLEEDISSSMTNSTAASRPPVTLRLVVPASQCGSLIGKGGCKIKEIRESTGAQVQVAGDMLPNSTERAITIAGIPQSIIECVKQICVVMLESPPKGVTIPYRPKPSSSPVIFAGGQDRYSTGSDSASFPHTTPSMCLNPDLEGPPLEAYTIQGQYAIPQPDLTKLHQLAMQQSHFPMTHGNTGFSGIESSSPEVKGYWAGLDASAQTTSHELTIPNDLIGCIIGRQGAKINEIRQMSGAQIKIANPVEGSTDRQVTITGSAASISLAQYLINVRLSSETGGMGSS
notes: PCBP2, cloned from a murine bone marrow library; source: recombinant (E. coli constructs in pGEX-6p-1 and pET-28a are described)
For the molecule B1, the binding result is given as “binds”.
